Measurements reported in US20260001928A1 (CORTERIA PHARMACEUTICALS, priority 2022, published 2026).
Values belong to the binder of their own block, whether it stands above or below them. *1 amine or outer side, *2 acyl side, *3 side chain or, on linkers, in order; H or OH if unused. Where no end group is shown, it is not given here. Side-chain parts run from the residue outwards. [ ]: non-standard residue; d: D form. The star is where a group is joined. C18 diacid = O=C(O)CCCCCCCCCCCCCCCCC(=O)*; C16 diacid = O=C(O)CCCCCCCCCCCCCCC(=O)*; γGlu = O=C(O)[C@H](CCC(=O)[*:2])N[*:1]; NMeI = CC[C@H](C)[C@H](NC)C(=O)O; Pentanoyl = CCCCC(=O)*; AEEA = NCCOCCOCC(=O)O; Aib = CC(C)(N)C(=O)O; Butyryl = CCCC(=O)*

Columns and labels:
[1] = molecular target: T1, CRF1R receptor (UniProt P34998 24-415, limits assumed); test: cell-based or functional assay
T1 sequence (looked up): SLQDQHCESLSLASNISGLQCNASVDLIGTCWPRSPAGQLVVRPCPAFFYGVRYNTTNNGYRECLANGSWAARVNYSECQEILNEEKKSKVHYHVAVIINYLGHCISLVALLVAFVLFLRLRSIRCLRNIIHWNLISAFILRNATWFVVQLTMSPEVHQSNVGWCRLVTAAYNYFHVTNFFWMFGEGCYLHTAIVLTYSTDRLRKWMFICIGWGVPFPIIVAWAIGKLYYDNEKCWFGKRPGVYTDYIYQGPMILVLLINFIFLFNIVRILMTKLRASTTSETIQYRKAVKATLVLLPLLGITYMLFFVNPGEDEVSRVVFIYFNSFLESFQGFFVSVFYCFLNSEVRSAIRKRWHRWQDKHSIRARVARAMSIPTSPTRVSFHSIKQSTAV

[2] = molecular target: human corticotropin-releasing factor 2a (CRF2a receptor) (human), Q13324; test: cell-based or functional assay
Chain of human corticotropin-releasing factor 2a (CRF2a receptor) (human), Q13324 (Q13324 20-411): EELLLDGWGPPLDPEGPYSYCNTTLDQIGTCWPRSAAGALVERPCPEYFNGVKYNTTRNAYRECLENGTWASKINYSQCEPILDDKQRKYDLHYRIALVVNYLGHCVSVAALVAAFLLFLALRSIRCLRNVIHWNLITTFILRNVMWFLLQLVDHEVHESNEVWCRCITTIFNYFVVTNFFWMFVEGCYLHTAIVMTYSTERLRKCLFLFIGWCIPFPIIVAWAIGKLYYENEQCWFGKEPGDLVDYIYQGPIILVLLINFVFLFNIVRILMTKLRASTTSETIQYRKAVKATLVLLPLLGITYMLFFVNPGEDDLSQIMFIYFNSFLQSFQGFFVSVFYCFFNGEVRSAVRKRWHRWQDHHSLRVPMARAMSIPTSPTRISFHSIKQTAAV

B3: SEQ ID NO 202 (peptide)
peptide: Pentanoyl-VLSLD[dV]PIKLK([AEEA-AEEA-γGlu-C18 diacid])KILLEQEKQK[Aib]QREQAETN[Aib]QILAQV-NH2
SMILES: CCCCC(=O)N[C@H](C(=O)N[C@@H](CC(C)C)C(=O)N[C@@H](CO)C(=O)N[C@@H](CC(C)C)C(=O)N[C@@H](CC(=O)O)C(=O)N[C@@H](C(=O)N1CCC[C@H]1C(=O)N[C@H](C(=O)N[C@@H](CCCCN)C(=O)N[C@@H](CC(C)C)C(=O)N[C@@H](CCCCNC(=O)COCCOCCNC(=O)COCCOCCNC(=O)CC[C@H](NC(=O)CCCCCCCCCCCCCCCCC(=O)O)C(=O)O)C(=O)N[C@@H](CCCCN)C(=O)N[C@H](C(=O)N[C@@H](CC(C)C)C(=O)N[C@@H](CC(C)C)C(=O)N[C@@H](CCC(=O)O)C(=O)N[C@@H](CCC(N)=O)C(=O)N[C@@H](CCC(=O)O)C(=O)N[C@@H](CCCCN)C(=O)N[C@@H](CCC(N)=O)C(=O)N[C@@H](CCCCN)C(=O)NC(C)(C)C(=O)N[C@@H](CCC(N)=O)C(=O)N[C@@H](CCCNC(=N)N)C(=O)N[C@@H](CCC(=O)O)C(=O)N[C@@H](CCC(N)=O)C(=O)N[C@@H](C)C(=O)N[C@@H](CCC(=O)O)C(=O)N[C@H](C(=O)N[C@@H](CC(N)=O)C(=O)NC(C)(C)C(=O)N[C@@H](CCC(N)=O)C(=O)N[C@H](C(=O)N[C@@H](CC(C)C)C(=O)N[C@@H](C)C(=O)N[C@@H](CCC(N)=O)C(=O)N[C@H](C(N)=O)C(C)C)[C@@H](C)CC)[C@@H](C)O)[C@@H](C)CC)[C@@H](C)CC)C(C)C)C(C)C
Emax (% I) [1]: 8%
EC50 [nM] (cAMP) [2]: 1.73 nM

B4: SEQ ID NO 203 (peptide)
peptide: Ac-IVLSLD[dV]PIKLK([AEEA-γGlu-C18 diacid])KILLEQEKQKKQREQAETN[Aib]QILAQV-NH2
SMILES: CC[C@H](C)[C@H](NC(C)=O)C(=O)N[C@H](C(=O)N[C@@H](CC(C)C)C(=O)N[C@@H](CO)C(=O)N[C@@H](CC(C)C)C(=O)N[C@@H](CC(=O)O)C(=O)N[C@@H](C(=O)N1CCC[C@H]1C(=O)N[C@H](C(=O)N[C@@H](CCCCN)C(=O)N[C@@H](CC(C)C)C(=O)N[C@@H](CCCCNC(=O)COCCOCCNC(=O)CC[C@H](NC(=O)CCCCCCCCCCCCCCCCC(=O)O)C(=O)O)C(=O)N[C@@H](CCCCN)C(=O)N[C@H](C(=O)N[C@@H](CC(C)C)C(=O)N[C@@H](CC(C)C)C(=O)N[C@@H](CCC(=O)O)C(=O)N[C@@H](CCC(N)=O)C(=O)N[C@@H](CCC(=O)O)C(=O)N[C@@H](CCCCN)C(=O)N[C@@H](CCC(N)=O)C(=O)N[C@@H](CCCCN)C(=O)N[C@@H](CCCCN)C(=O)N[C@@H](CCC(N)=O)C(=O)N[C@@H](CCCNC(=N)N)C(=O)N[C@@H](CCC(=O)O)C(=O)N[C@@H](CCC(N)=O)C(=O)N[C@@H](C)C(=O)N[C@@H](CCC(=O)O)C(=O)N[C@H](C(=O)N[C@@H](CC(N)=O)C(=O)NC(C)(C)C(=O)N[C@@H](CCC(N)=O)C(=O)N[C@H](C(=O)N[C@@H](CC(C)C)C(=O)N[C@@H](C)C(=O)N[C@@H](CCC(N)=O)C(=O)N[C@H](C(N)=O)C(C)C)[C@@H](C)CC)[C@@H](C)O)[C@@H](C)CC)[C@@H](C)CC)C(C)C)C(C)C
Emax (% I) [1]: 3%
EC50 [nM] (cAMP) [2]: 0.43 nM

B6: SEQ ID NO 201 (peptide)
peptide: Pentanoyl-VLSLD[dV]PIKLK([AEEA-AEEA-γGlu-C18 diacid])KILLEQEKQKKQREQAETN[Aib]QILAQV-NH2
SMILES: CCCCC(=O)N[C@H](C(=O)N[C@@H](CC(C)C)C(=O)N[C@@H](CO)C(=O)N[C@@H](CC(C)C)C(=O)N[C@@H](CC(=O)O)C(=O)N[C@@H](C(=O)N1CCC[C@H]1C(=O)N[C@H](C(=O)N[C@@H](CCCCN)C(=O)N[C@@H](CC(C)C)C(=O)N[C@@H](CCCCNC(=O)COCCOCCNC(=O)COCCOCCNC(=O)CC[C@H](NC(=O)CCCCCCCCCCCCCCCCC(=O)O)C(=O)O)C(=O)N[C@@H](CCCCN)C(=O)N[C@H](C(=O)N[C@@H](CC(C)C)C(=O)N[C@@H](CC(C)C)C(=O)N[C@@H](CCC(=O)O)C(=O)N[C@@H](CCC(N)=O)C(=O)N[C@@H](CCC(=O)O)C(=O)N[C@@H](CCCCN)C(=O)N[C@@H](CCC(N)=O)C(=O)N[C@@H](CCCCN)C(=O)N[C@@H](CCCCN)C(=O)N[C@@H](CCC(N)=O)C(=O)N[C@@H](CCCNC(=N)N)C(=O)N[C@@H](CCC(=O)O)C(=O)N[C@@H](CCC(N)=O)C(=O)N[C@@H](C)C(=O)N[C@@H](CCC(=O)O)C(=O)N[C@H](C(=O)N[C@@H](CC(N)=O)C(=O)NC(C)(C)C(=O)N[C@@H](CCC(N)=O)C(=O)N[C@H](C(=O)N[C@@H](CC(C)C)C(=O)N[C@@H](C)C(=O)N[C@@H](CCC(N)=O)C(=O)N[C@H](C(N)=O)C(C)C)[C@@H](C)CC)[C@@H](C)O)[C@@H](C)CC)[C@@H](C)CC)C(C)C)C(C)C
Emax (% I) [1]: 5%
EC50 [nM] (cAMP) [2]: 1.37 nM

Second part, the binder after the results:

Emax (% I) [1]: -2%
EC50 [nM] (cAMP) [2]: 1.84 nM
B1: SEQ ID NO 204 (peptide)
peptide: Ac-IVLSLD[dV]PIKLK([AEEA-AEEA-γGlu-γGlu-C18 diacid])KILLEQEKQKKQREQAETN[Aib]QILAQV-NH2
SMILES: CC[C@H](C)[C@H](NC(C)=O)C(=O)N[C@H](C(=O)N[C@@H](CC(C)C)C(=O)N[C@@H](CO)C(=O)N[C@@H](CC(C)C)C(=O)N[C@@H](CC(=O)O)C(=O)N[C@@H](C(=O)N1CCC[C@H]1C(=O)N[C@H](C(=O)N[C@@H](CCCCN)C(=O)N[C@@H](CC(C)C)C(=O)N[C@@H](CCCCNC(=O)COCCOCCNC(=O)COCCOCCNC(=O)CC[C@H](NC(=O)CC[C@H](NC(=O)CCCCCCCCCCCCCCCCC(=O)O)C(=O)O)C(=O)O)C(=O)N[C@@H](CCCCN)C(=O)N[C@H](C(=O)N[C@@H](CC(C)C)C(=O)N[C@@H](CC(C)C)C(=O)N[C@@H](CCC(=O)O)C(=O)N[C@@H](CCC(N)=O)C(=O)N[C@@H](CCC(=O)O)C(=O)N[C@@H](CCCCN)C(=O)N[C@@H](CCC(N)=O)C(=O)N[C@@H](CCCCN)C(=O)N[C@@H](CCCCN)C(=O)N[C@@H](CCC(N)=O)C(=O)N[C@@H](CCCNC(=N)N)C(=O)N[C@@H](CCC(=O)O)C(=O)N[C@@H](CCC(N)=O)C(=O)N[C@@H](C)C(=O)N[C@@H](CCC(=O)O)C(=O)N[C@H](C(=O)N[C@@H](CC(N)=O)C(=O)NC(C)(C)C(=O)N[C@@H](CCC(N)=O)C(=O)N[C@H](C(=O)N[C@@H](CC(C)C)C(=O)N[C@@H](C)C(=O)N[C@@H](CCC(N)=O)C(=O)N[C@H](C(N)=O)C(C)C)[C@@H](C)CC)[C@@H](C)O)[C@@H](C)CC)[C@@H](C)CC)C(C)C)C(C)C

Emax (% I) [1]: 2%
EC50 [nM] (cAMP) [2]: 0.71 nM
B2: SEQ ID NO 200 (peptide)
peptide: [NMeI]VLSLD[dV]PIKLK([AEEA-AEEA-γGlu-C18 diacid])KILLEQEKQK[Aib]QREQAETN[Aib]QILAQV-NH2
modifications: N-terminus assumed
SMILES: CC[C@H](C)[C@H](NC)C(=O)N[C@H](C(=O)N[C@@H](CC(C)C)C(=O)N[C@@H](CO)C(=O)N[C@@H](CC(C)C)C(=O)N[C@@H](CC(=O)O)C(=O)N[C@@H](C(=O)N1CCC[C@H]1C(=O)N[C@H](C(=O)N[C@@H](CCCCN)C(=O)N[C@@H](CC(C)C)C(=O)N[C@@H](CCCCNC(=O)COCCOCCNC(=O)COCCOCCNC(=O)CC[C@H](NC(=O)CCCCCCCCCCCCCCCCC(=O)O)C(=O)O)C(=O)N[C@@H](CCCCN)C(=O)N[C@H](C(=O)N[C@@H](CC(C)C)C(=O)N[C@@H](CC(C)C)C(=O)N[C@@H](CCC(=O)O)C(=O)N[C@@H](CCC(N)=O)C(=O)N[C@@H](CCC(=O)O)C(=O)N[C@@H](CCCCN)C(=O)N[C@@H](CCC(N)=O)C(=O)N[C@@H](CCCCN)C(=O)NC(C)(C)C(=O)N[C@@H](CCC(N)=O)C(=O)N[C@@H](CCCNC(=N)N)C(=O)N[C@@H](CCC(=O)O)C(=O)N[C@@H](CCC(N)=O)C(=O)N[C@@H](C)C(=O)N[C@@H](CCC(=O)O)C(=O)N[C@H](C(=O)N[C@@H](CC(N)=O)C(=O)NC(C)(C)C(=O)N[C@@H](CCC(N)=O)C(=O)N[C@H](C(=O)N[C@@H](CC(C)C)C(=O)N[C@@H](C)C(=O)N[C@@H](CCC(N)=O)C(=O)N[C@H](C(N)=O)C(C)C)[C@@H](C)CC)[C@@H](C)O)[C@@H](C)CC)[C@@H](C)CC)C(C)C)C(C)C

EC50 [1]: 101 nM
Emax (% I) [1]: 59%
EC50 [nM] (cAMP) [2]: 0.06 nM
B5: SEQ ID NO 7 (peptide)
peptide: Butyryl-VLSLD[dV]PIKLK([γGlu-C16 diacid])QILLKQERQKKQREQAEKNKQILEQV-NH2
SMILES: CCCC(=O)N[C@H](C(=O)N[C@@H](CC(C)C)C(=O)N[C@@H](CO)C(=O)N[C@@H](CC(C)C)C(=O)N[C@@H](CC(=O)O)C(=O)N[C@@H](C(=O)N1CCC[C@H]1C(=O)N[C@H](C(=O)N[C@@H](CCCCN)C(=O)N[C@@H](CC(C)C)C(=O)N[C@@H](CCCCNC(=O)CC[C@H](NC(=O)CCCCCCCCCCCCCCC(=O)O)C(=O)O)C(=O)N[C@@H](CCC(N)=O)C(=O)N[C@H](C(=O)N[C@@H](CC(C)C)C(=O)N[C@@H](CC(C)C)C(=O)N[C@@H](CCCCN)C(=O)N[C@@H](CCC(N)=O)C(=O)N[C@@H](CCC(=O)O)C(=O)N[C@@H](CCCNC(=N)N)C(=O)N[C@@H](CCC(N)=O)C(=O)N[C@@H](CCCCN)C(=O)N[C@@H](CCCCN)C(=O)N[C@@H](CCC(N)=O)C(=O)N[C@@H](CCCNC(=N)N)C(=O)N[C@@H](CCC(=O)O)C(=O)N[C@@H](CCC(N)=O)C(=O)N[C@@H](C)C(=O)N[C@@H](CCC(=O)O)C(=O)N[C@@H](CCCCN)C(=O)N[C@@H](CC(N)=O)C(=O)N[C@@H](CCCCN)C(=O)N[C@@H](CCC(N)=O)C(=O)N[C@H](C(=O)N[C@@H](CC(C)C)C(=O)N[C@@H](CCC(=O)O)C(=O)N[C@@H](CCC(N)=O)C(=O)N[C@H](C(N)=O)C(C)C)[C@@H](C)CC)[C@@H](C)CC)[C@@H](C)CC)C(C)C)C(C)C
